Experimental findings from article doi:10.1101/2025.08.03.668247, “The structure of Egalitarian in complex with the K10 mRNA localization signal reveals a modular binding surface required for function” are described below.

The Kd is the equilibrium constant for the complex coming apart.

Substitutions are numbered along the chain they refer to.

Holding throughout (assay): fluorescence anisotropy; FA: 20 mM HEPES-NaOH pH 7.5, 100 mM NaCl, 10% glycerol, 20 C, 10 nM FAM-RNA; competition: 150 nM Egl512-819 + 10 nM FAM-K10 TLS, same buffer
In general terms: Fluorescence polarisation rises when a labelled molecule tumbles more slowly, as on binding a larger partner.

One series concerns the target T1, K659E (Drosophila melanogaster, UniProt Q9W1K4 512-819, K659E).
T1 sequence: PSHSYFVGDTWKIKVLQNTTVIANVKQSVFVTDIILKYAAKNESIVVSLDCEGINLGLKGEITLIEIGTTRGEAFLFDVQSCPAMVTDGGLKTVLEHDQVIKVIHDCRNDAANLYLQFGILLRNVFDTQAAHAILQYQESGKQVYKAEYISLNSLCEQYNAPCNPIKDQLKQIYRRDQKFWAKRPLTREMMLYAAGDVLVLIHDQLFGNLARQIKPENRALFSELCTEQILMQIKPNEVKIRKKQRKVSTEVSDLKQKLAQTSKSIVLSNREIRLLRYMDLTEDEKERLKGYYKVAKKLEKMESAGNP
The settings on record: protein: recombinant; tags: N-terminal GST; label: 5'-6-FAM; hairpin with two bulges.

The next series deals with T2, K678A (Drosophila melanogaster, UniProt Q9W1K4 512-819, K678A).
T2 sequence: T1 sequence with E148K, K167A
The settings on record: protein: recombinant; tags: N-terminal GST; label: 5'-6-FAM; hairpin with two bulges.

The target of another series is T3, R782A (Drosophila melanogaster, UniProt Q9W1K4 512-819, R782A).
T3 sequence: T1 sequence with E148K, R271A
The following applies: protein: recombinant; tags: N-terminal GST; label: 5'-6-FAM; hairpin with two bulges.

The next series concerns the target T4, R753A/K754A/K755A (Drosophila melanogaster, UniProt Q9W1K4 512-819, R753A;K754A;K755A).
T4 sequence: T1 sequence with E148K, R242A, K243A, K244A
The settings on record: protein: recombinant; tags: N-terminal GST; label: 5'-6-FAM; hairpin with two bulges.

Another series deals with T5, Y685A (Drosophila melanogaster, UniProt Q9W1K4 512-819, Y685A).
T5 sequence: T1 sequence with E148K, Y174A
The settings on record: protein: recombinant; tags: N-terminal GST; label: 5'-6-FAM; hairpin with two bulges.

The next series concerns the target T6, GST-Egl512-819 (Drosophila melanogaster, UniProt Q9W1K4 512-819).
T6 sequence: T1 sequence with E148K
The settings on record: protein: recombinant; tags: N-terminal GST (TEV site); label: 5'-6-FAM; hairpin with two bulges.

With CUUGAUUGUAUUUUUAAAUUAAUUCUUAAAAACUACAAAUUAAG (structured_RNA) [K10 TLS (FAM)], the Kd is 418 ± 40 nM in the series with K659E; 295 ± 8 nM in the series with K678A; 284 ± 13 nM with R782A; 222 ± 19 nM with R753A/K754A/K755A; 221 ± 11 nM with Y685A; 130 ± 6 nM with GST-Egl512-819.
